Square brackets hold non-standard residues; d marks the D form. Ends that are not written are not given here. Aib = CC(C)(N)C(=O)O
T1: human glucose-dependent insulinotropic peptide receptor (human, UniProt P48546)
T1 sequence: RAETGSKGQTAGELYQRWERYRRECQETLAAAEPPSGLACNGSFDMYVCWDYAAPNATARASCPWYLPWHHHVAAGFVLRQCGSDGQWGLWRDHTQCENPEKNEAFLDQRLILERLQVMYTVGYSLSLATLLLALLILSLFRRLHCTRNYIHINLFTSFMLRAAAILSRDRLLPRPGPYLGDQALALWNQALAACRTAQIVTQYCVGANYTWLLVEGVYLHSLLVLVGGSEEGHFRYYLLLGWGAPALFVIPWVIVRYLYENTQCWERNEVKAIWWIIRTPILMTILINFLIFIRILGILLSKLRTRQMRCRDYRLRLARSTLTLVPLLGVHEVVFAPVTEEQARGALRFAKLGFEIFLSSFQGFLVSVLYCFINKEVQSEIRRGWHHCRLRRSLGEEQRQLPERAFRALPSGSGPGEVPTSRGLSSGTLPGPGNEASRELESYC

B1: Compound No. 2 (peptide)
peptide: Y[Aib]EGTFTSDVSSYLEEEAAKEFIAWLVRGGPSSGAPPPSK-NH2
modifications: N-terminus assumed
SMILES: CC[C@H](C)[C@H](NC(=O)[C@H](Cc1ccccc1)NC(=O)[C@H](CCC(=O)O)NC(=O)[C@H](CCCCN)NC(=O)[C@H](C)NC(=O)[C@H](C)NC(=O)[C@H](CCC(=O)O)NC(=O)[C@H](CCC(=O)O)NC(=O)[C@H](CCC(=O)O)NC(=O)[C@H](CC(C)C)NC(=O)[C@H](Cc1ccc(O)cc1)NC(=O)[C@H](CO)NC(=O)[C@H](CO)NC(=O)[C@@H](NC(=O)[C@H](CC(=O)O)NC(=O)[C@H](CO)NC(=O)[C@@H](NC(=O)[C@H](Cc1ccccc1)NC(=O)[C@@H](NC(=O)CNC(=O)[C@H](CCC(=O)O)NC(=O)C(C)(C)NC(=O)[C@@H](N)Cc1ccc(O)cc1)[C@@H](C)O)[C@@H](C)O)C(C)C)C(=O)N[C@@H](C)C(=O)N[C@@H](Cc1c[nH]c2ccccc12)C(=O)N[C@@H](CC(C)C)C(=O)N[C@H](C(=O)N[C@@H](CCCNC(=N)N)C(=O)NCC(=O)NCC(=O)N1CCC[C@H]1C(=O)N[C@@H](CO)C(=O)N[C@@H](CO)C(=O)NCC(=O)N[C@@H](C)C(=O)N1CCC[C@H]1C(=O)N1CCC[C@H]1C(=O)N1CCC[C@H]1C(=O)N[C@@H](CO)C(=O)N[C@@H](CCCCN)C(N)=O)C(C)C
B2: Compound No. 70 (peptide)
peptide: Y[Aib]EGTFTSDYSIYLEEIAAQEFVNWLLAGGPSSGAPPPS-NH2
modifications: N-terminus assumed
SMILES: CC[C@H](C)[C@H](NC(=O)[C@H](CCC(=O)O)NC(=O)[C@H](CCC(=O)O)NC(=O)[C@H](CC(C)C)NC(=O)[C@H](Cc1ccc(O)cc1)NC(=O)[C@@H](NC(=O)[C@H](CO)NC(=O)[C@H](Cc1ccc(O)cc1)NC(=O)[C@H](CC(=O)O)NC(=O)[C@H](CO)NC(=O)[C@@H](NC(=O)[C@H](Cc1ccccc1)NC(=O)[C@@H](NC(=O)CNC(=O)[C@H](CCC(=O)O)NC(=O)C(C)(C)NC(=O)[C@@H](N)Cc1ccc(O)cc1)[C@@H](C)O)[C@@H](C)O)[C@@H](C)CC)C(=O)N[C@@H](C)C(=O)N[C@@H](C)C(=O)N[C@@H](CCC(N)=O)C(=O)N[C@@H](CCC(=O)O)C(=O)N[C@@H](Cc1ccccc1)C(=O)N[C@H](C(=O)N[C@@H](CC(N)=O)C(=O)N[C@@H](Cc1c[nH]c2ccccc12)C(=O)N[C@@H](CC(C)C)C(=O)N[C@@H](CC(C)C)C(=O)N[C@@H](C)C(=O)NCC(=O)NCC(=O)N1CCC[C@H]1C(=O)N[C@@H](CO)C(=O)N[C@@H](CO)C(=O)NCC(=O)N[C@@H](C)C(=O)N1CCC[C@H]1C(=O)N1CCC[C@H]1C(=O)N1CCC[C@H]1C(=O)N[C@@H](CO)C(N)=O)C(C)C
B3: Compound No. 71 (peptide)
peptide: Y[Aib]EGTFTSDYSIYLEEEAAKEFVNWLLAGGPSSGAPPPS-NH2
modifications: N-terminus assumed
SMILES: CC[C@H](C)[C@H](NC(=O)[C@H](CO)NC(=O)[C@H](Cc1ccc(O)cc1)NC(=O)[C@H](CC(=O)O)NC(=O)[C@H](CO)NC(=O)[C@@H](NC(=O)[C@H](Cc1ccccc1)NC(=O)[C@@H](NC(=O)CNC(=O)[C@H](CCC(=O)O)NC(=O)C(C)(C)NC(=O)[C@@H](N)Cc1ccc(O)cc1)[C@@H](C)O)[C@@H](C)O)C(=O)N[C@@H](Cc1ccc(O)cc1)C(=O)N[C@@H](CC(C)C)C(=O)N[C@@H](CCC(=O)O)C(=O)N[C@@H](CCC(=O)O)C(=O)N[C@@H](CCC(=O)O)C(=O)N[C@@H](C)C(=O)N[C@@H](C)C(=O)N[C@@H](CCCCN)C(=O)N[C@@H](CCC(=O)O)C(=O)N[C@@H](Cc1ccccc1)C(=O)N[C@H](C(=O)N[C@@H](CC(N)=O)C(=O)N[C@@H](Cc1c[nH]c2ccccc12)C(=O)N[C@@H](CC(C)C)C(=O)N[C@@H](CC(C)C)C(=O)N[C@@H](C)C(=O)NCC(=O)NCC(=O)N1CCC[C@H]1C(=O)N[C@@H](CO)C(=O)N[C@@H](CO)C(=O)NCC(=O)N[C@@H](C)C(=O)N1CCC[C@H]1C(=O)N1CCC[C@H]1C(=O)N1CCC[C@H]1C(=O)N[C@@H](CO)C(N)=O)C(C)C
B4: Compound No. 69 (peptide)
peptide: Y[Aib]EGTFTSDVSIYLDKIAAQEFVNWLLAGGPSSGAPPPS-NH2
modifications: N-terminus assumed
SMILES: CC[C@H](C)[C@H](NC(=O)[C@H](CCCCN)NC(=O)[C@H](CC(=O)O)NC(=O)[C@H](CC(C)C)NC(=O)[C@H](Cc1ccc(O)cc1)NC(=O)[C@@H](NC(=O)[C@H](CO)NC(=O)[C@@H](NC(=O)[C@H](CC(=O)O)NC(=O)[C@H](CO)NC(=O)[C@@H](NC(=O)[C@H](Cc1ccccc1)NC(=O)[C@@H](NC(=O)CNC(=O)[C@H](CCC(=O)O)NC(=O)C(C)(C)NC(=O)[C@@H](N)Cc1ccc(O)cc1)[C@@H](C)O)[C@@H](C)O)C(C)C)[C@@H](C)CC)C(=O)N[C@@H](C)C(=O)N[C@@H](C)C(=O)N[C@@H](CCC(N)=O)C(=O)N[C@@H](CCC(=O)O)C(=O)N[C@@H](Cc1ccccc1)C(=O)N[C@H](C(=O)N[C@@H](CC(N)=O)C(=O)N[C@@H](Cc1c[nH]c2ccccc12)C(=O)N[C@@H](CC(C)C)C(=O)N[C@@H](CC(C)C)C(=O)N[C@@H](C)C(=O)NCC(=O)NCC(=O)N1CCC[C@H]1C(=O)N[C@@H](CO)C(=O)N[C@@H](CO)C(=O)NCC(=O)N[C@@H](C)C(=O)N1CCC[C@H]1C(=O)N1CCC[C@H]1C(=O)N1CCC[C@H]1C(=O)N[C@@H](CO)C(N)=O)C(C)C
B5: Compound No. 66 (peptide)
peptide: Y[Aib]EGTFTSDYSIYLEKEAAKEFVAWLLAGGPSSGAPPPS-NH2
modifications: N-terminus assumed
SMILES: CC[C@H](C)[C@H](NC(=O)[C@H](CO)NC(=O)[C@H](Cc1ccc(O)cc1)NC(=O)[C@H](CC(=O)O)NC(=O)[C@H](CO)NC(=O)[C@@H](NC(=O)[C@H](Cc1ccccc1)NC(=O)[C@@H](NC(=O)CNC(=O)[C@H](CCC(=O)O)NC(=O)C(C)(C)NC(=O)[C@@H](N)Cc1ccc(O)cc1)[C@@H](C)O)[C@@H](C)O)C(=O)N[C@@H](Cc1ccc(O)cc1)C(=O)N[C@@H](CC(C)C)C(=O)N[C@@H](CCC(=O)O)C(=O)N[C@@H](CCCCN)C(=O)N[C@@H](CCC(=O)O)C(=O)N[C@@H](C)C(=O)N[C@@H](C)C(=O)N[C@@H](CCCCN)C(=O)N[C@@H](CCC(=O)O)C(=O)N[C@@H](Cc1ccccc1)C(=O)N[C@H](C(=O)N[C@@H](C)C(=O)N[C@@H](Cc1c[nH]c2ccccc12)C(=O)N[C@@H](CC(C)C)C(=O)N[C@@H](CC(C)C)C(=O)N[C@@H](C)C(=O)NCC(=O)NCC(=O)N1CCC[C@H]1C(=O)N[C@@H](CO)C(=O)N[C@@H](CO)C(=O)NCC(=O)N[C@@H](C)C(=O)N1CCC[C@H]1C(=O)N1CCC[C@H]1C(=O)N1CCC[C@H]1C(=O)N[C@@H](CO)C(N)=O)C(C)C

Columns and labels:
[1] = target: T1, human glucose-dependent insulinotropic …; assay: cell-based or functional assay
[2] = target: human glucagon-like peptide-1 receptor (human, UniProt P43220); assay: cell-based or functional assay

Row | Binder | Activity for human GIPR (EC50 nM), cAMP HTRF [1] | Activity for human GLP-1R (EC50 nM), cAMP HTRF [2]
1 | B1 | 3.5 nM | 0.017 nM
2 | B2 | 0.017 nM | 0.017 nM
3 | B3 | 0.042 nM | 0.017 nM
4 | B4 | 0.12 nM | 0.052 nM
5 | B5 | 0.054 nM | 0.026 nM

From US20220168396A1, “MULTI-RECEPTOR AGONIST AND MEDICAL USE THEREOF” (published 2022)
